T1: FcγRIIa R (human, UniProt P12318 34-217)
T1 construct: extracellular domain; also called FcgRIIa R type; 2aR
T1 sequence (looked up): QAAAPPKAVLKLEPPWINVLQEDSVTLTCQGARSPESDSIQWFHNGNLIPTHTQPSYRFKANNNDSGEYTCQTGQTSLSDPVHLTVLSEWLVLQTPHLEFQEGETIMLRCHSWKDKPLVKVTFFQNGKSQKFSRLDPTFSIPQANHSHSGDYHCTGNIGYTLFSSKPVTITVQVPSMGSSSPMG

T2: FcγRIIb (human, UniProt P31994 43-217)
T2 construct: extracellular domain; also called FcgRIIb; 2b
T2 sequence (looked up): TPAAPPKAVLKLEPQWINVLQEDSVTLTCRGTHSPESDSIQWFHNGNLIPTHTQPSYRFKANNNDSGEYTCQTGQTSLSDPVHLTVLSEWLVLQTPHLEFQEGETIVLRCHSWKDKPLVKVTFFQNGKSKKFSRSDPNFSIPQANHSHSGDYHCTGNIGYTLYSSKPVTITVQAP

T3: FcγRIIb extracellular domain with C-terminal His tag (human, UniProt P31994 43-217)
T3 construct: extracellular domain; also called FcgRIIb; 2b; not shown: His tag at the C terminus
T3 sequence (looked up): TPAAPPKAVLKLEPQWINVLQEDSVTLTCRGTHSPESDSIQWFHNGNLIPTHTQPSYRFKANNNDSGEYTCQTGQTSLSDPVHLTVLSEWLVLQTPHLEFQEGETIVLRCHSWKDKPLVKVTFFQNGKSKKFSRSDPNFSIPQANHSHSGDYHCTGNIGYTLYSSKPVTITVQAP


How the values were obtained:
FcγRIIa R [1] = molecular target: T1, FcγRIIa R; assay: SPR; He/Con_2aR divided by He/Con_2b (FcγRIIb as reference)
Experimental: The heterodimerized antibodies He Abs in which one of the H chains was introduced with an alteration were assayed for their binding activities to each activating FcγR and inhibitory FcγR according to the method described in Example 4. […] The activating FcγRs in FIGS. 26, 27, 28, and 29 are FcγRIa, FcγRIIa (R), FcγRIIa (H), and FcγRIIIa, respectively.
(§1) Analysis of interaction between objective antibody and the FcγR was carried out using Biacore T100 (GE Healthcare). HBS-EP+ (GE Healthcare) was used as the running buffer, and the measurement temperature was set to 25° C. Chips produced by immobilizing the antigen peptide by the amine coupling method to a Series S Sencor Chip CM5 (GE Healthcare), or alternatively, chips produced by allowing preliminarily biotinylated antigen peptides to interact with and immobilize onto a Series S Sensor Chip SA (certified) (GE Healthcare) were used. Antibodies of interest were captured onto an antigen peptide-immobilized chip, and allowed to interact to each FcγR diluted with running buffer. To regenerate and repeatedly use the chip, the antibodies captured on the chip were washed off by reacting 10 mM glycine-HCl, pH 1.5.

FcγRIIa R [2] = molecular target: T1, FcγRIIa R; assay: SPR (Biacore), antibody captured, FcγR as analyte; relative binding
FcγRIIb = molecular target: T2, FcγRIIb; assay: as above
[3] = molecular target: T3, FcγRIIb extracellular domain with …; assay: SPR (Biacore), captured antibody, FcγR as analyte; relative to GpH7-A5/GpH7-B3/GpL16-k0 = 100
Experimental: as §1
(§2) The FcγR-binding activity of each antibody was assessed primarily using as an indicator the FcγR-binding activity and dissociation constant for FcγR.

[4] = molecular target: T4, FcγRIIIa extracellular domain with C-terminal His tag (human, UniProt P08637 17-208); assay: as above
T4 construct: extracellular domain; also called FcgRIIIa; 3a; not shown: His tag at the C terminus
Experimental: as §1, §2

T4 sequence (P08637 17-208): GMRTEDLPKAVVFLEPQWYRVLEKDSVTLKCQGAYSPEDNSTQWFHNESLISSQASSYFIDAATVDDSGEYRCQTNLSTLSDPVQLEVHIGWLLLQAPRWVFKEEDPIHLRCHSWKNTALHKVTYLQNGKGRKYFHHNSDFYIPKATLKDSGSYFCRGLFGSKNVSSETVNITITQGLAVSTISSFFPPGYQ

Binder | IIaR/IIb (He_2aR/2b) (FcγRIIa R [1]) [ratio] | He/Con_2aR (IIaR binding) (FcγRIIa R [2]) | He/Con_2b (IIb binding) (FcγRIIb) | He/Con_2b (IIb binding) [3] | He/Con_3a (IIIa binding) [4]
GpH7-A5/GpH7-B3 variant Y296_05P/GpL16-k0 (antibody, human IgG1, kappa, heterodimerized antibody, mutation in the GpH7-B3 chain only; also called He Ab) heavy 1: not shown heavy 2: not shown light: DIVMTQSPLSLPVTPGEPASISCQASESLVHSNRNTYLHWYLQKPGQSPQLLIYKVSNRFSGVPDRFSGSGSGTDFTLKISRVEAEDVGVYYCSQNTHVPPTFGQGTKVEIERTVAAPSVFIFPPSDEQLKSGTASVVCLLNNFYPREAKVQWKVDNALQSGNSQESVTEQDSKDSTYSLSSTLTLSKADYEKHKVYACEVTHQGLSSPVTKSFNRGEC | 1.3 | 47.7 % of GpH7-A5/GpH7-B3/GpL16-k0 (=100) | 36.6 % of GpH7-A5/GpH7-B3/GpL16-k0 (=100) | – | –
GpH7-A5/GpH7-B3 variant P238_03V/GpL16-k0 (heterodimerized antibody, He Ab) (antibody, human IgG1, kappa, Anti-glypican-3 IgG1; the alteration is in the GpH7-B3 chain only; also called P238V) heavy 1: not shown heavy 2: not shown light: DIVMTQSPLSLPVTPGEPASISCQASESLVHSNRNTYLHWYLQKPGQSPQLLIYKVSNRFSGVPDRFSGSGSGTDFTLKISRVEAEDVGVYYCSQNTHVPPTFGQGTKVEIERTVAAPSVFIFPPSDEQLKSGTASVVCLLNNFYPREAKVQWKVDNALQSGNSQESVTEQDSKDSTYSLSSTLTLSKADYEKHKVYACEVTHQGLSSPVTKSFNRGEC | – | – | – | 120 % of HeCon Ab | 43.8 % of HeCon Ab
GpH7-A5/GpH7-B3 variant G237_02A/GpL16-k0 (heterodimerized antibody, He Ab) (antibody, human IgG1, kappa, Anti-glypican-3 IgG1; the alteration is in the GpH7-B3 chain only; also called G237A) heavy 1: not shown heavy 2: not shown light: DIVMTQSPLSLPVTPGEPASISCQASESLVHSNRNTYLHWYLQKPGQSPQLLIYKVSNRFSGVPDRFSGSGSGTDFTLKISRVEAEDVGVYYCSQNTHVPPTFGQGTKVEIERTVAAPSVFIFPPSDEQLKSGTASVVCLLNNFYPREAKVQWKVDNALQSGNSQESVTEQDSKDSTYSLSSTLTLSKADYEKHKVYACEVTHQGLSSPVTKSFNRGEC | – | – | – | 124 % of HeCon Ab | 48.8 % of HeCon Ab
GpH7-A5/GpH7-B3 variant G237_05P/GpL16-k0 (heterodimerized antibody, He Ab) (antibody, human IgG1, kappa, Anti-glypican-3 IgG1; the alteration is in the GpH7-B3 chain only; also called G237P) heavy 1: not shown heavy 2: not shown light: DIVMTQSPLSLPVTPGEPASISCQASESLVHSNRNTYLHWYLQKPGQSPQLLIYKVSNRFSGVPDRFSGSGSGTDFTLKISRVEAEDVGVYYCSQNTHVPPTFGQGTKVEIERTVAAPSVFIFPPSDEQLKSGTASVVCLLNNFYPREAKVQWKVDNALQSGNSQESVTEQDSKDSTYSLSSTLTLSKADYEKHKVYACEVTHQGLSSPVTKSFNRGEC | – | – | – | 24.6 % of HeCon Ab | 10.9 % of HeCon Ab
GpH7-A5/GpH7-B3 variant G236_10E/GpL16-k0 (heterodimerized antibody, He Ab) (antibody, human IgG1, kappa, Anti-glypican-3 IgG1; the alteration is in the GpH7-B3 chain only; also called G236E) heavy 1: not shown heavy 2: not shown light: DIVMTQSPLSLPVTPGEPASISCQASESLVHSNRNTYLHWYLQKPGQSPQLLIYKVSNRFSGVPDRFSGSGSGTDFTLKISRVEAEDVGVYYCSQNTHVPPTFGQGTKVEIERTVAAPSVFIFPPSDEQLKSGTASVVCLLNNFYPREAKVQWKVDNALQSGNSQESVTEQDSKDSTYSLSSTLTLSKADYEKHKVYACEVTHQGLSSPVTKSFNRGEC | – | – | – | 110 % of HeCon Ab | 70.7 % of HeCon Ab

The next lines start with the values.

IIaR/IIb (He_2aR/2b) (FcγRIIa R [1]) [ratio] | He/Con_2aR (IIaR binding) (FcγRIIa R [2]) | He/Con_2b (IIb binding) (FcγRIIb) | He/Con_2b (IIb binding) [3] | He/Con_3a (IIIa binding) [4] | Binder
1.25 | 99.6 % of GpH7-A5/GpH7-B3/GpL16-k0 (=100) | 79.5 % of GpH7-A5/GpH7-B3/GpL16-k0 (=100) | – | – | GpH7-A5/GpH7-B3 variant Y296_12R/GpL16-k0 (antibody, human IgG1, kappa, heterodimerized antibody, mutation in the GpH7-B3 chain only; also called He Ab) heavy 1: not shown heavy 2: not shown light: DIVMTQSPLSLPVTPGEPASISCQASESLVHSNRNTYLHWYLQKPGQSPQLLIYKVSNRFSGVPDRFSGSGSGTDFTLKISRVEAEDVGVYYCSQNTHVPPTFGQGTKVEIERTVAAPSVFIFPPSDEQLKSGTASVVCLLNNFYPREAKVQWKVDNALQSGNSQESVTEQDSKDSTYSLSSTLTLSKADYEKHKVYACEVTHQGLSSPVTKSFNRGEC
1.3 | 94.3 % of GpH7-A5/GpH7-B3/GpL16-k0 (=100) | 72.8 % of GpH7-A5/GpH7-B3/GpL16-k0 (=100) | – | – | GpH7-A5/GpH7-B3 variant Y296_11K/GpL16-k0 (antibody, human IgG1, kappa, heterodimerized antibody, mutation in the GpH7-B3 chain only; also called He Ab) heavy 1: not shown heavy 2: not shown light: DIVMTQSPLSLPVTPGEPASISCQASESLVHSNRNTYLHWYLQKPGQSPQLLIYKVSNRFSGVPDRFSGSGSGTDFTLKISRVEAEDVGVYYCSQNTHVPPTFGQGTKVEIERTVAAPSVFIFPPSDEQLKSGTASVVCLLNNFYPREAKVQWKVDNALQSGNSQESVTEQDSKDSTYSLSSTLTLSKADYEKHKVYACEVTHQGLSSPVTKSFNRGEC

— patent US20180155451A1 (published 2018)
